For this data set, the target named is C/EBPβ bZIP domain (mouse, UniProt P28033 221-296). As to the kind of experiment: fluorescence polarization. (In general: Polarisation of emitted light reports the rotation of a fluorescent probe.)

Drawing on publication doi:10.1101/2021.04.24.441265, this text covers Kd for one molecule.

Chain of C/EBPβ bZIP domain (P28033 221-296): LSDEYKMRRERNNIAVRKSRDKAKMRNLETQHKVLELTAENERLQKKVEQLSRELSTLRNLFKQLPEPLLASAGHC

B1: FP_CREBmeth (half-CRE•C/EBP Il36A, methylated) (dsDNA)
DNA 1: CATCTTACGTCACCT
DNA 2: AGGTGACGTAAGATG
modifications: mC at strand 1 position 8 and strand 2 position 7 (CpG, both strands)
Take B1: the Kd (commonly the free concentration of one partner at which half of the binding sites on the other are occupied at equilibrium, for simple one-to-one binding) came out at 100 ± 30 nM.
